Test results from PMC6445466 (2019).

B1: BBK32-C (residues 206-354, B. burgdorferi strain B31) (domain or fragment)
chain: SNRYQSYLEGVKYNVDSAIQTITKIYNTYTLFSTKLTQMYSTRLDNFAKAKAKEEAAKFTKEDLEKNFKTLLNYIQVSVKTAANFVYINDTHAKRKLENIEAEIKTLIAKIKEQSNLYEAYKAIVTSILLMRDSLKEVQGIIDKNGVWY
B2: BAD16-C (residues 204-352, B. afzelii strain PGau) (domain or fragment)
chain: SNRYESYLEGVKYNVSSAIKTIVKIYDNYTLLSTKQTQMYSTRLDNLAKAKAREEAKKFTKEELEKDLKTLLNYIQVSARTATNFVYAREIYSKRKLDAIETEIKNLVLKIKGQSDLYEAYKAIVRSILLMKDSLKIIEIVIDKNGVWY
B3: human C1r, full-length enzyme (enzyme)
chain: SIPIPQKLFGEVTSPLFPKPYPNNFETTTVITVPTGYRVKLVFQQFDLEPSEGCFYDYVKISADKKSLGRFCGQLGSPLGNPPGKKEFMSQGNKMLLTFHTDFSNEENGTIMFYKGFLAYYQAVDLDECASRSKSGEEDPQPQCQHLCHNYVGGYFCSCRPGYELQEDTHSCQAECSSELYTEASGYISSLEYPRSYPPDLRCNYSIRVERGLTLHLKFLEPFDIDDHQQVHCPYDQLQIYANGKNIGEFCGKQRPPDLDTSSNAVDLLFFTDESGDSRGWKLRYTTEIIKCPQPKTLDEFTIIQNLQPQYQFRDYFIATCKQGYQLIEGNQVLHSFTAVCQDDGTWHRAMPRCKIKDCGQPRNLPNGDFRYTTTMGVNTYKARIQYYCHEPYYKMQTRAGSRESEQGVYTCTAQGIWKNEQKGEKIPRCLPVCGKPVNPVEQRQRIIGGQKAKMGNFPWQVFTNIHGRGGGALLGDRWILTAAHTLYPKEHEAQSNASLDVFLGHTNVEELMKLGNHPIRRVSVHPDYRQDESYNFEGDIALLELENSVTLGPNLLPICLPDNDTFYDLGLMGYVSGFGVMEEKIAHDLRFVRLPVANPQACENWLRGKNRMDVFSQNMFCAGHPSLKQDACQGDSGGVFAVRDPNTDRWVATGIVSWGIGCSRGYGFYTKVLNYVDWIKKEMEEED

How the values were obtained:
human C1 complex = human C1 complex (human, UniProt P02745 23-245; P02746 28-253; P02747 29-245); experiment: SPR
[1] = target: B2; experiment: SPR

Row | Binder | Kd (human C1 complex) [nM] | Kd [1] [nM]
1 | B1 | 6 | –
2 | B2 | 5.4 | –
3 | B3 | – | 2.2
